Numbered stars: 1 amine (or outer) side, 2 acyl side, 3 side chain; on linkers, the order of the positions; unused ones are H or OH. Bridge positions count the residues as written; N and C are the ends. Square brackets hold non-standard residues; d marks the D form. Side chains are listed from the residue outwards. Ends that are not written are not given here. * marks the point of attachment. DSPE = distearoyl phosphatidylethanolamine, CCCCCCCCCCCCCCCCCC(=O)OC[C@H](COP(=O)(O)OCCN*)OC(=O)CCCCCCCCCCCCCCCCC; DPPE = CCCCCCCCCCCCCCCC(=O)OC[C@H](COP(=O)(O)OCCN*)OC(=O)CCCCCCCCCCCCCCC; Tuda = 3,6,9-trioxaundecane-1,11-dioyl, O=C(COCCOCCOCC(=O)[*:3])[*:2]; Glutaryl = O=C(CCCC(=O)[*:2])[*:1]; PG4 = not defined here; AEEA = NCCOCCOCC(=O)O
Experiments:
[1] = test system: neuroblastoma (Neuro-2a) tumor; test: In vivo MRI test of fibrin imaging in neuroblastoma tumor mouse model; conditions: mice with neuroblastoma tumor; 25 μmol/kg iv.; T1 weighted MRI at 2T, 4 h post injection
Description: Three groups of 5 mice each, inoculated with 2·10^6 neuroblastoma cells with PBS, were formed and tested as follows: • Group a: Reference compound 2, • Group b: Chelate Complex 1 • Group c: ProHance® (see Protocol)
At day-10 post tumor cells inoculation, at least 4 mice per group with similar tumor size (5-10 mm in diameter) were selected for the in vivo MRI tests. After pre-contrast MRI acquisition (T1 and T2 high resolution 2D spin-echo and 3D gradient echo images), the test compounds were administered (25 μmol/kg iv.) and MRI was performed at 4 h and 24 h post injection. Maximum signal intensity was measured in the entire tumor area and in each post contrast image covering the whole tumor and the signal was compared to the pre-contrast images. At the end of MRI exams, all animals were sacrificed and the tumor, blood, liver, kidneys and femoral bone were removed and prepared for Gd assay by ICP-AES. […]
The mean signal intensity was measured within a region of interest (ROI) including the entire tumor, drawn by an operator on each MR image using dedicated software (MR Research Systems Ltd, Surrey UK). Signal intensity enhancement (Enh %) was determined as: Enh%=100*(SIx(t)−SI0)/SI0 […]

fibrin = target: T1, fibrin (Homo sapiens, UniProt P02671+P02675+P02679); test: Dynamic binding test of targeted microvesicles on fibrin-coated coverslips in a parallel-plate flow chamber; conditions: shear rate about 114 s^-1, 10 min, 50% human plasma
T1 sequence (P02671 36-629 limits assumed): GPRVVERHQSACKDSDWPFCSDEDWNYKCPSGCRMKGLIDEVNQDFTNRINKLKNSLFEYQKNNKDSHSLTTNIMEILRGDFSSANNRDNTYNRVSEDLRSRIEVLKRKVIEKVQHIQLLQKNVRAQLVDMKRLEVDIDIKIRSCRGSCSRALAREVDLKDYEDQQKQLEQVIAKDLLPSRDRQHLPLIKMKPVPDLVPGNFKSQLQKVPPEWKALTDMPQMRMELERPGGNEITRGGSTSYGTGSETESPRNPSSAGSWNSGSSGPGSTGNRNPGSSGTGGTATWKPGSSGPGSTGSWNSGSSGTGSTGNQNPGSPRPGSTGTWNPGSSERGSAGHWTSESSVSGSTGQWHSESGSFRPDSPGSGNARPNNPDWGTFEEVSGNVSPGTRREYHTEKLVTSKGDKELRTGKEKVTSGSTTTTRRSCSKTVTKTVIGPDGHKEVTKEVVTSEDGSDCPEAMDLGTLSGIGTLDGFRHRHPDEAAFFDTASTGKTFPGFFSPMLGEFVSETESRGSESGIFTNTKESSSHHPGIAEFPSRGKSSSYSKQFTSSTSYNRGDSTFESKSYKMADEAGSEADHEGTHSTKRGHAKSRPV
T1 sequence (P02675 45-491 limits assumed): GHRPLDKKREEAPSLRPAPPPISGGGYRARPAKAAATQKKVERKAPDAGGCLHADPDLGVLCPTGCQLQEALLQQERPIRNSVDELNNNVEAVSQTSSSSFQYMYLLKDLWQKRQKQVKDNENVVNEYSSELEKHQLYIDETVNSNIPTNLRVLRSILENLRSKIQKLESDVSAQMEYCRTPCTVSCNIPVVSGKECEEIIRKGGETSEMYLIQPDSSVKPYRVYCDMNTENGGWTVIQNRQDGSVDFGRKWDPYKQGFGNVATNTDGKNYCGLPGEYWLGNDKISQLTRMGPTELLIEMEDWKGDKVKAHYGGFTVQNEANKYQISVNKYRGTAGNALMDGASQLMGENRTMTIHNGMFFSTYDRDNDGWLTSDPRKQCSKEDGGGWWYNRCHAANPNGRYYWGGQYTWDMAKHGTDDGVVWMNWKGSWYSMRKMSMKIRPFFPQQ
T1 sequence (P02679 27-437 isoform P02679-2 limits assumed): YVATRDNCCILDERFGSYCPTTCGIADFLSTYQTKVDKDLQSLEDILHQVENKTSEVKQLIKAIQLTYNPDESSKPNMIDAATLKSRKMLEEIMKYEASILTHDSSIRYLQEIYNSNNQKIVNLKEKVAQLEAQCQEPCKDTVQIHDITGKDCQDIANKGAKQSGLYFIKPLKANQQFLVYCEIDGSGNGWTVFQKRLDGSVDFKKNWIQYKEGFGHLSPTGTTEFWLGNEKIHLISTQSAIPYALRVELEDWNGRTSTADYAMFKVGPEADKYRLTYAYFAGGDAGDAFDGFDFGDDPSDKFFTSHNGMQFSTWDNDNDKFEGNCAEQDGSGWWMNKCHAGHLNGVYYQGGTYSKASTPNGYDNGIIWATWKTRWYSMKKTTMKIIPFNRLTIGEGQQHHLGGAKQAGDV
Experimental: Glass coverslips (40 mm in diameter, Bioptechs Inc., Butler, Pa., USA) were coated with fibrin according the following methodology.
Five mL of a solution of BSA 1% w/v in PBS pH 7.4 were added into a 60 mm Petri Dish containing one coverslip, and incubated at 37° C. for 15 min. Then the coverslip was washed three times with 5 ml of Tween 80/PBS (0.1%, v:v). Twenty five μL of human thrombin solution at 5 U/mL were added per mL of human fibrinogen solution (0.5 mg/mL in 50 mM sodium phosphate, NaCl 280 mM, pH 7.4) and delicately mixed. Five mL of this solution were immediately distributed in each Petri dish. The coverslips were incubated for one hour at 37° C. and then dried overnight at 45° C.
Binding studies of targeted microvesicles were carried out using a parallel-plate flow chamber (FCS2, Bioptech Inc., Butler, Pa., USA) with a chamber gasket of 0.25 mm in thickness, with a customized adapter for upside-down chamber inversion. The coated coverslip was inserted as a plate of the flow chamber. Gas-filled Microvesicles (5×10^6 bubbles/mL in 50% human plasma in PBS) were drawn through the flow chamber using an adjustable infusion pump (Auto Syringe® AS50 Infusion Pump, Baxter, Deerfield, Ill., USA) with a 60 mL syringe (Terumo). The pump flow rate was adjusted to 1 mL/min to obtain the desired shear rate of about 114 s^−1. After 10 minutes, the flow was stopped and pictures were taken randomly on different positions on the coverslip (on surfaces of about 0.025 mm^2) using a 40× objective and a CCD monochrome camera (F-View II, Soft Imaging Systems, Germany) connected to an inverted Olympus IX 50 microscope. The number of microvesicles on each picture was determined, averaged with respect to the total number of pictures and the obtained value was then divided by ten (to obtain the “slope”, i.e. the average amount of bound microvesicles per minute).
For each preparation of Examples 17-20, the binding assay was repeated four times thus obtaining an average value of the slope. The slope represents the microvesicle binding rate on the target substrate. […] A higher slope indicates a better capacity of microvesicles to bind to the target under flow conditions.

[2] = microvesicles with DSPC/DSPG envelope, Examples 19C-19E (0.45 μmoles lipopeptide, 0.45 μmoles DSPE-PEG1000)
[3] = microvesicles with DSPC/stearate envelope containing the lipopeptide (Examples 20A-20D)
[4] = microvesicles with DPPE/DPPG envelope containing the lipopeptide (Examples 18A-18C), slope = average bound microvesicles per minute
[5] = microvesicles with DSPC/DPPG envelope containing the lipopeptide (Examples 17A-17B, molar ratio 47.5/47.5/5), slope = average bound microvesicles per minute
[6] = microvesicles with DSPC/DSPA envelope, 0.26 μmoles lipopeptide (Examples 20E, 20G, 20H)

## CC(O)CN1CCN(CC(=O)[O-])CCN(CC(=O)[O-])CCN(CC(=O)[O-])CC1.[Gd+3] (stereo not shown) [ProHance®, reference compound]
[1]
  tumor signal enhancement: no signal enhancement was observed inside the tumors

## Ac-GWQPC*PWESWTFC*WDPGGGK(DSPE-PG4-Glut)-NH2 (Ac-GWQPCPWESWTFCWDPGGGK([Glutaryl-PG4-DSPE])-NH2; disulfide 5-13; reading uncertain; also: printed as Ac-GWQPC*PWESWTFC*WDPGGGK(DSPE-PG4-Glut)-NH2) [Seq016-PL1]
fibrin; [2]
  Slope: 11.5
fibrin; [3]
  Slope: 8.4

## Ac-SGSGJWQPC*PWESWTFC*WDPGGGK(DSPE-PG4-Glut)-NH2 (Ac-SGSG[AEEA]WQPCPWESWTFCWDPGGGK-NH2; disulfide 9-17; not fully specified (residue 24); printed as Ac-SGSGJWQPC*PWESWTFC*WDPGGGK(DSPE-PG4-Glut)-NH2) [Seq017-PL1]
fibrin; [4]
  Slope: 8.9
fibrin; [3]
  Slope: 3.1

## Ac-SGSGSGSGWQPC*PWESWTFC*WDPGGGK(DSPE-PG4-Glut)-NH2 (Ac-SGSGSGSGWQPCPWESWTFCWDPGGGK([Glutaryl-PG4-DSPE])-NH2; disulfide 12-20; reading uncertain; also: printed as Ac-SGSGSGSGWQPC*PWESWTFC*WDPGGGK(DSPE-PG4-Glut)-NH2) [Seq024-PL1]
fibrin; [2]
  Slope: 6.2

## Ac-WQPC*PAESWTFC*WDPGGGK(DSPE-PG4-Glut)-NH2 (Ac-WQPCPAESWTFCWDPGGGK([Glutaryl-PG4-DSPE])-NH2; disulfide 4-12; reading uncertain; also: printed as Ac-WQPC*PAESWTFC*WDPGGGK(DSPE-PG4-Glut)-NH2) [Seq005-PL1]
fibrin; [4]
  Slope: 7.2
fibrin; [5]
  Slope: 8.54
fibrin; [3]
  Slope: 6.1

## Ac-WQPC*PWESWTFC*WDPGGGK(DPPE-PG4-Glut)-NH2 (Ac-WQPCPWESWTFCWDPGGGK([Glutaryl-PG4-DPPE])-NH2; disulfide 4-12; reading uncertain) [Seq000-PL1, reference compound]
fibrin; [4]
  Slope: 4.8
fibrin; [5]
  Slope: 6.44
fibrin; microvesicles with DSPC/DSPG envelope, Example 19A (0.63 μmole lipopeptide, 0.28 μmole DSPE-PEG1000)
  Slope: 4.4
fibrin; microvesicles with DSPC/DSPG envelope, Example 19B (0.36 μmole lipopeptide, 1.44 μmoles DSPE-PEG1000)
  Slope: 4.9
fibrin; [3]
  Slope: 1.6

## Ac-WQPCPAESWTFCWDPGAGSGK(DPPE-Pro9-Glut-Ttda-Dga)-NH2 (Ac-WQPCPAESWTFCWDPGAGSGK-NH2; disulfide 4-12 (inferred); not fully specified (residue 21)) [Seq005-PL5]
fibrin; [6]
  Slope: 6.0

## Ac-WQPCPAESWTFCWDPGSAGSK(DPPE-Pro9-Glut-Ttda-Dga)-NH2 (Ac-WQPCPAESWTFCWDPGSAGSK-NH2; disulfide 4-12 (inferred); not fully specified (residue 21)) [Seq005-PL4]
fibrin; [6]
  Slope: 6.4
fibrin; microvesicles with DSPC/DSPA envelope, 0.795 μmoles lipopeptide (Example 20F)
  Slope: 8.0

## RWQPC*PWESWTFC*WDPGGGK(DSPE-PG4-Glut)-NH2 (RWQPCPWESWTFCWDPGGGK([Glutaryl-PG4-DSPE])-NH2; disulfide 5-13; reading uncertain; also: printed as RWQPC*PWESWTFC*WDPGGGK(DSPE-PG4-Glut)-NH2) [Seq023-PL1]
fibrin; [2]
  Slope: 8.5

## Seq000-PL2: comparative lipopeptide prepared from Seq000(Adoa-Adoa) and DPPE (Ac-WQPCPWESWTFCWDPGGGK([AEEA-AEEA-Tuda-DPPE])-NH2; disulfide 4-12) [reference compound]
fibrin; [6]
  Slope: 4.6

Reference: US8466107B2, “Fibrin-binding peptides and conjugates thereof” (Bracco Imaging SpA, priority 2006, dated 2013)
